In patent US20180127504A1 (ACADEMIA SINICA, published 2018):
Where a chain is given by its changes, count along the chain named.

B1: R2S12 (scFv, V domains shown)
VH: QVNLRESGGGLVKPGGSLRLSCAASGFTFGSYTMNWVRQAPGKGLEWVASITSGSSYIFYTDSVKGRFTISRDNSRSSLFLQMNSLRAEDTAIYYCARGSASAFDIWGQGTMVTVSS
VL: DIQMTQSPSSLSASVGDRVTITCKASDDIINYLNWYQQKPGEAPKLLIYDASILETGVPSRFSGSGSGTDFTFTISSLQPEDIATYYCQQYDILPLTFGGGTKLEIK
notes: Soluble scFv made in E. coli HB2151 from phage clone R2PC12, with E tag; also called soluble anti-VEGFR2 scFv from phage clone R2PC12
B2: R2S8 (scFv, V domains shown)
VH: QVQLVQSGGGLVKPGGSLRLSCAASGFTFSSYSMSWVRQAPGKGLEWVSSISSSSSYIYYADSVKGRFTISRDNAKNSLYLQMNSLRAEDTAVYYCARSTDAFDIWGQGTMVTVSS
VL: DIVMTQSPSSLSASVGDRVTITCRASQRISNYLNWYQHKSGEDPKLLIYAASSLQSGVPSRFSGSGSGTDFTLTISSLQPEDFATYYCQQYDRYPPTFGQGTKLEIK
notes: also called soluble anti-VEGFR2 scFv from phage clone R2PC8
B3: R2S28 (scFv, V domains shown)
VH: EVQLVESGGALVQPGGSLRLSCVGSEFTFSHYNLHWVRQAPGKGLEWLAVISDDGRNKYYGDSVKGRFTISRDNSKNTLYLQMNGLRAEDTAVYYCARVPTVWRGGVYDIWGQGTMVTVSS
VL: EIVLTQSPATLSLSPGERATLSCRASQSVGSYLAWYQQRPGQPPRLLIYDASNRATGVAARFSGSGSGTDFTLTIDSLEAEDAATYYCHQSSSLPRTFGQGTKLEIK
notes: also called soluble anti-VEGFR2 scFv from phage clone R2PC28
B4: R2PC29 (scFv, V domains shown)
VH: QVQLQQSGAEMKKSGSSVKVSCKASGGNFISKGISWVRQAPGQGLEWMGGIIPLFGTGNYAQKFQGRVTITADESTTTVYLQLTSLTPEDTAMYFCATADVDYSDSLEAFDMWGQGTMVTVSS
VL: DIVMTQSPSSLSASVGDRVTITCRASQSINNYLNWYQQKPGKAPNLLIYGASSLQSGVPSRFRGSGSGTDFTLTISSLQPEDFATYYCQQSYSTPLFGQGTKLEIK
notes: also called anti-VEGFR2 scFv phage clone 29
B5: R2PC12 (scFv, V domains shown)
VH: B1 VH
VL: B1 VL
notes: also called anti-VEGFR2 scFv phage clone 12
B6: R2PC8 (scFv, V domains shown)
VH: B2 VH
VL: B2 VL
notes: also called anti-VEGFR2 scFv phage clone 8
B7: R2PC28 (scFv, V domains shown)
VH: B3 VH
VL: B3 VL
notes: also called anti-VEGFR2 scFv phage clone 28
B8: R2S29 (scFv, V domains shown)
VH: B4 VH
VL: B4 VL
notes: also called soluble anti-VEGFR2 scFv from phage clone R2PC29

biological target: T1, VEGFR2(1-7) (human, UniProt P35968 20-813); assay: immunofluorescent staining of transfected 293T cells
T1 construct: Expressed on 293T cells; also called full-length extracellular region of VEGFR2, domains 1-7, Met1 to Leu813

Row | Binder | binding result
1 | B1 | binds
2 | B2 | binds
3 | B3 | binds

biological target: T2, VEGFR2(2-7) (human, UniProt P35968 111-813); assay: as above
T2 construct: also called domains 2-7, Ala111 to Leu813

Row | Binder | binding result
4 | B1 | binds
5 | B2 | binds
6 | B3 | no binding

biological target: T3, VEGFR2(4-7) (human, UniProt P35968 321-813); assay: as above
T3 construct: also called domains 4-7, Phe321 to Leu813

Row | Binder | binding result
7 | B1 | no binding
8 | B2 | no binding
9 | B3 | no binding

biological target: T4, VEGFR2(del2-3) (human, UniProt P35968 20-813); assay: as above
T4 construct: Expressed on 293T cells; also called VEGFR2 with domains 2 and 3 deleted

Row | Binder | binding result
10 | B1 | no binding
11 | B2 | no binding
12 | B3 | binds

biological target: T5, VEGFR2(del3) (human, UniProt P35968 20-813); assay: as above
T5 construct: Expressed on 293T cells; also called VEGFR2 with domain 3 deleted

Row | Binder | binding result
13 | B1 | no binding
14 | B2 | no binding
15 | B3 | binds

Biological target: T6, VEGFR2(M1) (human, UniProt P35968 20-813)
T6 construct: Expressed on 293T cells; single substitutions derived from the printed replacement of the six-residue stretch; also called VEGFR2-M1 mutant protein
T6 chain: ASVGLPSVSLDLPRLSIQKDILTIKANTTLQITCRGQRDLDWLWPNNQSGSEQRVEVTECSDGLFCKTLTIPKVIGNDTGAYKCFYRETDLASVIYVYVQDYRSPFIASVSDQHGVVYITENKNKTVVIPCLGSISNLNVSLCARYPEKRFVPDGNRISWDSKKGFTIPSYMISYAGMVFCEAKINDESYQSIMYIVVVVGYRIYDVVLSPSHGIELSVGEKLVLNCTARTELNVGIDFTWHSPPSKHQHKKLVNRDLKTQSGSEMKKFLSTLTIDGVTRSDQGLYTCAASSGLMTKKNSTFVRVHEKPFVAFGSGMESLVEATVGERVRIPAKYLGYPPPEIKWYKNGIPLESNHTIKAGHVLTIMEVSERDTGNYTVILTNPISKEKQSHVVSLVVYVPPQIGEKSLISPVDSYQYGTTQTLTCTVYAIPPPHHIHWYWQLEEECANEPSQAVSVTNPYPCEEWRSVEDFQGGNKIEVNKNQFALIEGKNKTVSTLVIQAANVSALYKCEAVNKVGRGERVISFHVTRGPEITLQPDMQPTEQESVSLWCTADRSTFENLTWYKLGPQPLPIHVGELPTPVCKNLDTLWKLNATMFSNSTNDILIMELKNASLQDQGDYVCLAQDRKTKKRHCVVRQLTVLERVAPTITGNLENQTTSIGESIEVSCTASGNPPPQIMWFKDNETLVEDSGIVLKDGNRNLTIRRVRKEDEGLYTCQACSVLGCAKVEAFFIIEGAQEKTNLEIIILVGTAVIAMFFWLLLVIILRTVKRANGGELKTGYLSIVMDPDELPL
Assay: as above

Row | Binder | binding result
16 | B1 | no binding
17 | B2 | no binding
18 | B3 | binds

Biological target: T7, VEGFR2(M2) (human, UniProt P35968 20-813)
T7 construct: Expressed on 293T cells; single substitutions derived from the printed replacement of the seven-residue stretch
T7 chain: T6 chain with T240N, H242E, S243Y, P245S, T260P, Q261F, S262P, S264T, E265V, M266A
Assay: as above

Row | Binder | binding result
19 | B1 | binds
20 | B2 | binds
21 | B3 | binds

biological target: T8, c-Met-Fc control protein (UniProt P08581 25-932, limits assumed); assay: phage ELISA on coated MET-Fc, anti-M13-HRP detection
T8 construct: Bought control protein; also called Met-Fc (R&D); c-Met-Fe; not shown: Fc part of the bought fusion protein; not described
Procedure: The selected phages were further examined by ELISA screening. The 96-well plates were coated with […] of VEGFR2-Fc, Met-Fc (R&D), or BSA (Sigma) protein in 0.1 M sodium bicarbonate overnight at 4° C. After blocking with 1% BSA in PBS (w/v) for 2 hr at room temperature, 70-randomly selected phage clones were added to the plates at a 1:2 dilution in 1% BSA, and incubated for 1 hr at room temperature. Following washes with PBST, the plates were incubated with a 1:2000 dilution of horseradish peroxidase (HRP)-conjugated mouse anti-M13 phage antibody (GE) for 1 hr. After washing with PBST, the colorimetric reaction was developed with the peroxidase substrate ortho-phenylenediamine (OPD; Sigma) plus H₂O₂ for 15 min, and then terminated by the addition of 3 N HCl. The absorbance at 490 nm was determined using a microplate reader (SpectraMax, Molecular Devices). Plasmid DNA of positive clones were isolated and sequenced using the pCANTAB5 sequencing primer set.
(§1) After four rounds of affinity selection (biopanning), the titer of bound phage increased by as much as 3,455-fold (FIG. 1A).

T8 sequence (P08581 25-932 limits assumed): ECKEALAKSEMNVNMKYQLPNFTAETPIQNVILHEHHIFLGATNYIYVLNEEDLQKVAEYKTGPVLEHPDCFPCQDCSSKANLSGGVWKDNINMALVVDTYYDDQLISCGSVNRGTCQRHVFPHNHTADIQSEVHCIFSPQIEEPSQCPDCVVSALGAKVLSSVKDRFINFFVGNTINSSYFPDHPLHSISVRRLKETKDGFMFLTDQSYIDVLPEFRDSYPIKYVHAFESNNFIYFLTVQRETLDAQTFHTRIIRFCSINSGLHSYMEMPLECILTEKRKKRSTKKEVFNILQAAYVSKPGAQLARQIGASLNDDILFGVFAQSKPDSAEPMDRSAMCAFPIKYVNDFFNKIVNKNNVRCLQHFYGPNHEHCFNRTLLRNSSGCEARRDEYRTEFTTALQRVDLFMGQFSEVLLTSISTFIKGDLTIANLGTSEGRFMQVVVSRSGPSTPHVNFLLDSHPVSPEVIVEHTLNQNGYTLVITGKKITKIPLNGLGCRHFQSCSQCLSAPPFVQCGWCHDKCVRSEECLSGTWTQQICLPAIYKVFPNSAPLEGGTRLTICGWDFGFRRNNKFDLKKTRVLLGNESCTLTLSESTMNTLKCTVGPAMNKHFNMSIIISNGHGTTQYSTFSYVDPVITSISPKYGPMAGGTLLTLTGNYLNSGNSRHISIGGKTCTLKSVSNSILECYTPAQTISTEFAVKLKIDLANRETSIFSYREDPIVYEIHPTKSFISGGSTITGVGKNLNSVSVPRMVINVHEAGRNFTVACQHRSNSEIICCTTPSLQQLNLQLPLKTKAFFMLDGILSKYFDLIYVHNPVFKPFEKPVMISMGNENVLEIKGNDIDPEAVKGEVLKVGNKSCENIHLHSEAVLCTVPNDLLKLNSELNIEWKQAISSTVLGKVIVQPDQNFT

Row | Binder | binding result
22 | B4 | no binding (tested: 1x10^9 cfu)
23 | B5 | no binding (tested: 1x10^9 cfu)
24 | B6 | no binding (tested: 1x10^9 cfu)
25 | B7 | no binding (tested: 1x10^9 cfu)

biological target: T9, VEGFR2 on the cell surface of human umbilical vein endothelial cells (HUVEC) (human, UniProt P35968 20-1356); assay: flow cytometry on HUVECs, 1x10^10 cfu phage, anti-M13 and PE-labelled secondary antibody
T9 construct: Endogenous receptor of human cells; also called cell-surface VEGFR2; cellular VEGFR2
Procedure: About 1×10⁴ HUVEC were incubated with the selected anti-VEGFR2 phage clones at 4° C. for 1 hour in FACS buffer (PBS containing 1% fetal bovine serum). After the cells were washed with FACS buffer, they were first incubated with mouse anti-M13 phage Ab for 1 hr at 4° C., and then with R-phycoerythrin-conjugated goat anti-mouse IgG (Jackson Immuno Research) for 30 min at 4° C. Flow cytometry was performed with a FACSCantoII (BD), and emission fluorescence intensity was measured with FACS Diva software (BD) to quantitatively compare binding affinities.
as §1

Row | Binder | binding result
26 | B4 | binds
27 | B5 | binds
28 | B6 | binds
29 | B7 | binds

biological target: T10, VEGFR2 on tumor vascular endothelium (frozen sections of human lung cancer specimens) (human, UniProt P35968); assay: immunofluorescence on frozen sections of human lung cancer, scFv detected by anti-E tag and rhodamine secondary antibody, CD31 co-staining
T10 construct: endogenous, on CD31-positive tumor vascular endothelium in frozen tissue sections; also called human tumor vasculature

Row | Binder | binding result
30 | B8 | binds
31 | B1 | binds
32 | B2 | binds
33 | B3 | binds
